The test deals with T1, Soluble CTLA-4-Ig (human, UniProt P16410 36-161, FITC-conjugated in the two-colour FACS assays; unlabelled and detected with FITC goat anti-human IgG in the concentration-dependent assay).
T1 construct: extracellular domain; Bought from R&D Systems; also called sCTLA-4-Ig; CTLA-4-Ig Fc; not shown: Fc portion of human IgG1
The experiment in a line: two-colour FACS profile on transfected cells; score of preference for CTLA-4-Ig over CD28-Ig vs WT hB7-1.

Where a chain is given by its changes, count along the chain named.

T1 sequence (P16410 36-161): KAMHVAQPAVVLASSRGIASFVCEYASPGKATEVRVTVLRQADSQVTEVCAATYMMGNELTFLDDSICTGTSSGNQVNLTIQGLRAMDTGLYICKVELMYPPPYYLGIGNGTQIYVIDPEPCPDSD

B1: Round 2 CTLA4BP 2x4-g9 (ligand)
chain: VIHVTKEVKEVATLSCGHNVSVEELAQTRIYWQKDKKMVLTMMSGDMNIWPEYKNQTIFDITNNLSIVILALRPSDEGTYECVVLKYEKDAFKQEHLAEVMLSVKADFPTPSISDFEIPPSNIRRIICSTSGGFPEPRLAWMEDGEELNAISTTVSQDPGTELCTVSSKLDFNMTTNHSFMCLIRYGHLRVNQTFNWNTPKQEHFPDNLLPSWAITLISVKGIFVICCLTYCFAPRGRERKSNGRLRRESVHPV
As for B1, the “Binding Score” value is 1.

B2: Round 2 CTLA4BP 2x2-f3 (ligand)
chain: VIYVTKEVKEVATLSCGHNVSVEELAQTRIYWQKEKKMVLIMMSGDMNIWPEYKNRTIFDITNNLSIVILALRPSDEGTECVVLKYEKDAFKREHLAEVTLSVKADFPTPSISDFEIPPSNIRRIICSTSGGFPEPHLSWLENGEELNAINTTVSQDPGTELYTVSSKLDFNMTTNHSFMCLIKYGHLRVNQTFNWNTPKQEHFPDNLLPSWAITLISVNGIFVICCLTYCFAPRCRERRRNERLRRESVCPV
As to B2, the “Binding Score” value was found to be 1.

B3: Round 2 CTLA4BP 5x3-e8 (ligand)
chain: VIHVTKEVKEVATLSCGHNVSVEELAQTRIYWQKEKKMVLTMMSGDMNIWPEYKNRTIFDITNNLSIVILALRPSDEGTYECVVLEYEKDAFKREHLAEVTLSVKADFPTPSISDFEIPTSNIRRIICSTSGGFPEPHLFWLENGEELNAINTTVSQDPETELYTVSSKLDFNMTANHSFVCLIKYGHLRVNQTFNWNTPKQEHFPDNLLPSWAITLISVNGIFVICCLTYCFAPGCRERRRNERLRRESVCPV
For the molecule B3, the “Binding Score” value worked out at 1.

B4: Round 2 CTLA4BP 5x5-h12 (ligand)
chain: VIHVTKKVKEVATLSCGHNVSVEELAQTRIHWQKEKKMVLTMMSGDMNIWPEYKNRTIFDITNNLSIVILALRPSDEGTYECVVLKYEKDAFKREHLAEVMLSVKADFPTPSISDFEIPPSNIRRIICSTSGGFPEPHLSWLENGEELNAINTTVSQDPGTELYTVSSKLDFNMTTDRSFVCLIKYGHLRVNQTFNWNTPKQEHFPDNLLPSWAITLISVNGIFVICCLTYCFAPRCRERRRNGRLRRESVRPV
For B4, the “Binding Score” value turned out to be 1.

B5: Round 2 CTLA4BP-5x2-7b (ligand)
chain: B4 chain with K7E, M101T, D107G, S114T, T176A, D177N, R178H, V220A, G244E
For the molecule B5, the “Binding Score” value came to 1.

B6: Round 2 CTLA4BP 5x6-f6 (ligand)
chain: B3 chain with R29P, E86K, T101M, S114T, T120P, A176T, H178R, V220A, C232R, G236R
Consider B6, for which the “Binding Score” value came to 1.

B7: Round 2 CTLA4BP 5x4-h1 (ligand)
chain: VIHVTKEVKEVATLSCGHNVSVEELAQTRIHWQKEKKMVLTMMSGDMNIWPEYKNRTIFDITNNLSIVILALRPSDEGTYECVVLKYEKDAFKRKHLAEVMLSVKADFPTPSISDFEIPTSNIRRIICSTSGGFPEPHLFWLENGEELNAINTTASQDPETELYTVSSKLDFNMTTNRSFVCLIKYGHLRVNQTFNWNTPKQEHFPNNLLPSWAITLISVNGIFVICCLTYCFAPRCRERRRNETLRRESVHPV
For the molecule B7, the “Binding Score” value worked out at 2.

B8: Round 2 CTLA4BP-5x3-11b (ligand)
chain: B4 chain with K7E, H31Y, P74S, M101T, S114T, N152S, G160E, D177N, R242S, G244E
As for B8, the “Binding Score” value is 1.

B9: Round 2 CTLA4BP-5x3-6f (ligand)
chain: VIHVTKEVKEVATLSCGHNVSVEELAQTRIYWQKGKKMVLTMMSGDMNIWPEYKNRTIFDITNNLSIVILALRPSDEGTYECVVLEYEKDAFKREHLAEVMLSVKADFPTPSISDFEIPTSNIRRIICSTSGGFPEPHLSWLENGEELNAINTTASQDPETELYTVSSKLDFNMTTNHSFMCLIKYGHLRVNQTFNWNTPKQEHFPDNLLPSWAITLISANGIFVICCLAYCFAPGCRERKSNERLRRESVRPV
For the molecule B9, the “Binding Score” value came to 2.

B10: Round 2 CTLA4BP-5x2-4c (ligand)
chain: B3 chain with H18L, T101M, T120P, F140S, A150G, A176T, H178R, G236R, C252H
As to B10, the “Binding Score” value was found to be 1.

B11: Round 2 CTLA4BP-5x3-10e (ligand)
chain: B3 chain with T120P, T165A, A176T, V181M, V220A, G236R, R241K, R242S, C252H
In the case of B11, the “Binding Score” value worked out at 2.

B12: Round 2 CTLA4BP-5x4-11d (ligand)
chain: VIHVTKEVKEVATLSCGLNVSVEELAQTRIHWQKEKKMVLTMMSGDMNIWPEYKNRTIFDITNNLSIVILALRPSDEGTYECVVLKYDKDAFKREHLAEVTLSVKADFPTPSISDFEIPPSNIRRIICSTSGGFPEPHLSWLENGEELNAINTTVSQDPETELYTVSSKLDFNMTANHSFVCLIKYGHLRVNQTFNWNTPKQEHFPDNLLPSWAITLISVNGIFVICCLTYRFAPRCRERKSNERLRRESVRPV
Consider B12, for which the “Binding Score” value was determined as 2.

B13: Round 2 CTLA4BP-5x5-6e (ligand)
chain: VIHVTKEVKEVATLSCGHNVSVEELAQTRIHWQKEKKMVLTMMSGDMNIWPEYKNRTIFDITNNLSIVILALRPSDEGTYECVVLKYEKDAFKREHLAEVMLSVKADFPTPSITDFEIPPSNIRRIICSTSGGFPEPHLSWLENGEELNAISTTVSQDPETELYTVSSKLDFNMTTNHSFMCLIKYGHLRVNQTFNWNTTKQEHFPDNLLPSWAITLISANGIFVICCLTHCFAPRCRERKRNERLRRESVRPV
For B13, the “Binding Score” value is 2.

B14: Round 2 CTLA4BP-5x2-2g (ligand)
chain: B13 chain with P120T, S152N, T200P, A220V, H231Y, C232R, R242S
On to B14, for which the “Binding Score” value was found to be 2.

B15: Round 2 CTLA4BP-5x6-9d (ligand)
chain: B3 chain with Y31H, E86K, T101M, F140S, G236R, C252R
As to B15, the “Binding Score” value is 2.

B16: Round 2 CTLA4BP 5x5-c10 (ligand)
chain: B13 chain with H31Y, K86E, M101T, S140F, T165A, A220V, H231Y, K241R, R252H
With B16, the “Binding Score” value is 1.

B17: Round 2 CTLA4BP-5x9-12c (ligand)
chain: B13 chain with S152N, V155A, T200P, A220V, H231Y, R242S
Take B17: the “Binding Score” value was 2.

B18: Round 2 CTLA4BP 5x9-d10 (ligand)
chain: B9 chain with H18L, T120P, E160G, A220V, A230T, Y231H, G236R, K241R, S242R, V251A
As to B18, the “Binding Score” value came to 1.

B19: Round 2 CTLA4BP-5x5-2e (ligand)
chain: B13 chain with H18L, T114S, S152N, T165A, T200P, A220V, H231Y, K241R, R245T
On to B19, for which the “Binding Score” value stood at 2.

B20: Round 2 CTLA4BP-5x2-3c (ligand)
chain: B3 chain with K6R, Y31H, E86K, T101M, F140S, E162G, A176T, V181M, G236R
Take B20: the “Binding Score” value was 2.

B21: Round 2 CTLA4BP-5x8-1f (ligand)
chain: B13 chain with T130A, S140F, S152N, T165A, K185R, T200P, A220V, H231Y, R242S
Consider B21, for which the “Binding Score” value turned out to be 2.

B22: Round 2 CTLA4BP 5x4-a1 (ligand)
chain: B4 chain with K7E, H31Y, Y53H, M101T, S114T, P120T, D177N, G244E
With B22, the “Binding Score” value was 0.

B23: Round 2 CTLA4BP-5x2-8c (ligand)
chain: VIHMTKEVKEVATLSCGHNVSVEELAQTRIYWQKEKKMVLTMMSGDMNIWPEYKNRTIFDITNNLSIVILALRPSDEGTYECVVLKYEKDAFKQEHLAEVMLSVKADFPTPSITDFEIPPSNIRRIICSTSGGFPEPHLFWLENGEELNAINTTVSQDPETELYAVSSKLDFNMTTNHSFVCLIKYGHLRVNQTFNWNTPKQEHFPDNLLPSWAITLISANGIFVICCLTYCFAPRCRERRRNERLRRESVHPV
Regarding B23, the “Binding Score” value came out at 2.

B24: Round 2 CTLA4BP-5x4-12c (ligand)
chain: B13 chain with T114S, S140F, S152N, T200P, H231Y, C232R, R242S, R245T
notes: Full-length clone on transiently or stably transfected 293 cells; The end 288 is the end of the entry as counted; also called R2 CTLA-4BP 5x4-12c; clone 12c
B24: the “Binding Score” value amounted to 2.

B25: Round 2 CTLA4BP-5X2-12F (ligand)
chain: B13 chain with M101T, R124K, S152N, T200P, L209P, H231Y, K241R, R245T
As to B25, the “Binding Score” value worked out at 1.

B26: Round 2 CTLA4BP-5x4-1f (ligand)
chain: B3 chain with Y31H, E86K, T101M, A176T, V181M, G236R
Take B26: the “Binding Score” value worked out at 2.

B27: Round 2 CTLA4BP 2x1-c9 (ligand)
chain: VIHVTKEVKEVATLSCGHNVSAEELAQTRIYWQKEKKMVLTMMSGDMNIWPEYKNRTIFDITNNLSIVILALRPSDEGTYECVVLEYEKDAFKREHLAEVMLSVKADFPTPSITDFEIPTSNIRRIICSTSGGFPEPRLAWMEDGEELNAISTTASQDPETELYTVSSKLDFNMTTNHSFMCLIKYGHLRVNQTFNWNTPKQEHFPDNLLPSWAITLISVNGIFVICCLTHCFAPRCRERRRNERLRRESVCPV
In the case of B27, the “Binding Score” value was found to be 1.

The values are drawn from US20050154189A1 (MAXYGEN, published 2005).
